Data published in patent US6436666.
Where “and” joins values, the source holds several entries; their conditions need not be identical. Equal entries are not always repeated.

Legend:
[1] = target: Substrate: protein A-G-G-G-G-7aa-NS4B/5A cleavage site-8aa-FLAG-G-FLAG-G-FLAG (Example 6) (hepatitis C virus); test: time-resolved fluorometry: 20 nM substrate captured on IgG coated Immulon-4 plate, detected with Eu^3+-anti-FLAG MoAb
[2] = target: pro A-NS5 target polypeptide of Examples 3 and 4 (protein A anchor region, linker, protease target site of HCV NS5A/5B, linker, FLAG epitope tag region) (hepatitis C virus); test: ELISA: pro A-NS5 on human IgG plate, no protease, anti-FLAG then goat anti-mouse conjugate
[3] = target: pro A-NS5, polypeptide substrate of HCV protease (Example 1 construct: Protein A - NS5A/5B protease target site - three FLAG tags) (hepatitis C virus); test: ELISA: pro A-NS5 on IgG plate, no protease, anti-FLAG then goat anti-mouse-HRP; Exp. 1
[4] = target: pro A-NS5, polypeptide substrate of HCV protease (Example 1 construct: Protein A - NS5A/5B protease target site - three FLAG tags) (hepatitis C virus); test: ELISA: pro A-NS5 on IgG plate, no protease, anti-FLAG then goat anti-mouse-HRP; Exp. 2
[5] = target: pro A-NS5, polypeptide substrate of HCV protease (Example 1 construct: Protein A - NS5A/5B protease target site - three FLAG tags) (hepatitis C virus); test: ELISA: proA-NS5 2 µg/ml captured on IgG plate, no protease, anti-FLAG then goat anti-mouse-HRP, OPD
[6] = target: pro A-NS5, polypeptide substrate of HCV protease (Example 1 construct: Protein A - NS5A/5B protease target site - three FLAG tags) (hepatitis C virus); test: ELISA: pro A-NS5 10 µg/ml captured on IgG plate, no protease, anti-FLAG then goat anti-mouse-HRP, OPD
[7] = target: Peptide 4A, a co-factor of the NS3 HCV protease (Example 2)

Molecule: Eu^3+-anti-FLAG MoAb (Sigma via Kodak, cat#IB13026, lot# 710413) (antibody)
- Eu^3+ counts [1]: 1.31e+06 Eu^3+ counts and 1.26e+06 Eu^3+ counts

Molecule: Mouse monoclonal anti-FLAG M2 (IBI, IBI13010/6j0612) (antibody)
- OD w/o DMSO [2]: 2.6 OD

Molecule: monoclonal anti-FLAG mouse antibody (available from Kodak)
- OD [3]: 1.23 OD
- OD [4]: 0.93 OD
- OD [5]: 0.77 OD
- OD [6]: 1.21 OD

B1: protease 1: Ni-13 (F21) 20 µM, preparation made at Chiron (protein)
chain: APITAYAQQTRGLLGCIITSLTGRDKNQVEGEVQIVSTAAQTFLATCINGVCWTVYHGAGTRTIASPKGPVIQMYTNVDQDLVGWPAPQGSRSLTPCTCGSSDLYLVTRHADVIPVRRRGDSRGSLLSPRPISYLKGSSGGPLLCPAGHAVGIFRAAVCTRGVAKAVDFIPVENLETTMRS
- cleavage of the NS4B/5A substrate by the protease with and without the co-factor peptide [7]: These data demonstrates the operability of the screening assay using HCV NS4B/5A protease cleavage site with co-factor peptide 4A
